Target: T1, yeast general transcription factor TFIIB (yeast, UniProt P29055 1-345)
T1 sequence (looked up): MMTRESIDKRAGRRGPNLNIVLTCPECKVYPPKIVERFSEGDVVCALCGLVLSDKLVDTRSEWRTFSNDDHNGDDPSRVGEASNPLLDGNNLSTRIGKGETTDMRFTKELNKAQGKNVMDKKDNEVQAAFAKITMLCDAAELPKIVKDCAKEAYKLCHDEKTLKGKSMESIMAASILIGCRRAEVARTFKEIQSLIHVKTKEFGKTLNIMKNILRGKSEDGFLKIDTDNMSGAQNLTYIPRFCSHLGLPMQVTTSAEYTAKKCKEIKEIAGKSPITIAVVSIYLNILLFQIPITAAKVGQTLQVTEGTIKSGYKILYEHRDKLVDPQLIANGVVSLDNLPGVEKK
Assay: native gel or EMSA

binding result: binds
B1: yeast TATA-binding protein (TBP) (natural protein, UniProt P13393 1-240, looked up)
chain: MADEERLKEFKEANKIVFDPNTRQVWENQNRDGTKPATTFQSEEDIKRAAPESEKDTSATSGIVPTLQNIVATVTLGCRLDLKTVALHARNAEYNPKRFAAVIMRIREPKTTALIFASGKMVVTGAKSEDDSKLASRKYARIIQKIGFAAKFTDFKIQNIVGSCDVKFPIRLEGLAFSHGTFSSYEPELFPGLIYRMVKPKIVLLIFVSGKIVLTGAKQREEIYQAFEAIYPVLSEFRKM

Reference: PMC2396426 (Nucleic Acids Research, 2008)
